Legend:
[1] = system: homoserine transsuccinylase; experiment: Homoserine transsuccinylase enzyme test using cell extracts, decrease in extinction at 232 nm, with and without L-methionine; format: biochemical, E. coli; details: for Activity (%) in the presence of 1 mM L-methionine: activity in the absence of L-methionine corresponds to 100%; for Activity (U/mg): cell extract of E. coli W3110 transformants, 1 mM homoserine, 0.1 mM succinyl-CoA, 50 mM Tris/Cl pH 7.6; for Ki: concentration of L-methionine at which activity is only 50% of activity in its absence
Description: Any method which enables the activity of the enzyme to be determined in the presence of L-methionine or SAM can be used for determining the sensitivity of the homoserine transsuccinylase to L-methionine and/or SAM. For example, the homoserine transsuccinylase activity can be determined by following the method described by Kredich and Tomkins for determining the activity of serine acetyltransferases (Kredich N. M. and Tomkins G. M., J. Biol. Chem. 241, 4955-4965 (1966)). The enzyme activity is measured in an assay sample which contains homoserine and succinyl-CoA. The reaction is started by adding enzyme and monitored in a spectrophotometer by way of the decrease in the extinction at 232 nm which results from cleavage of the thioester bond in the succinyl-coenzyme A. The described test is suitable for determining the sensitivity of the homoserine transsuccinylases to methionine. The inhibition of homoserine transsuccinylase activity is tested in the presence of different concentrations of L-methionine in the reaction mixture.
The activity, and the influence of L-methionine on the activity, of the different homoserine transsuccinylases were determined by means of an enzyme test using cell extracts in which the respective proteins had been produced. For this, the corresponding plasmids, encoding altered homoserine transsuccinylases, were introduced, by transformation, into the E. coli strain W3110 (ATCC 27325) using methods known to the skilled person. The transformation mixture was spread on LB-tetracycline agar plates (10 g of tryptone/l, 5 g of yeast extract/l, 5 g of NaCl/l, 15 g of agar/l and 15 mg of tetracycline/l) and incubated at 37° C. overnight. The resulting transformants were grown in SM1 medium (for 1 l of medium: CaCl2×2H2O, 0.0147 g, MgSO4×7H2O, 0.3 g, Na2MoO4×2H2O, 0.15 mg, H3BO3, 2.5 mg, CoCl2×6H2O, 0.7 mg, CuSO4×5H2O, 0.25 mg, MnCl2×4H2O, 1.6 mg, ZnSO4×7H2O, 0.3 mg, KH2PO4, 3.0 g, K2HPO4, 12.0 g, (NH4)2SO4, 5 g, NaCl, 0.6 g, FeSO4×7H2O, 0.002 g, Na3-citrate×2H2O, 1 g, glucose, 5 g, tryptone, 1 g, yeast extract, 0.5 g), centrifuged down at an absorption of approx. 0.8 at 600 nm, washed in 50 mM Tris pH 7.5, and centrifuged down once again. The cells were resuspended in 50 mM Tris/Cl, pH 7.5, 2 mM dithiothreitol, 0.5 mM phenylmethylsulfonyl fluoride and disrupted in a French press. The supernatant from a further centrifugation was used as the enzyme extract in the test. The enzyme activity was determined, in a mixture containing 50 mM Tris/Cl, pH 7.6, 1 mM homoserine and 0.1 mM succinyl-CoA, by photometrically quantifying, by means of the decrease in the extinction at 232 nm, the coenzyme A formed in the reaction, following the method described by Kredich and Tomkins for determining the activity of serine acetyltransferases (Kredich N. M. and Tomkins G. M., J. Biol. Chem. 241, 4955-4965 (1966)). The effect of added L-methionine on the activity was determined and the inhibitability was quantified as a Ki value. The Ki which is determined is the concentration of L-methionine at which the activity of the homoserine transsuccinylase is only 50% of its activity in the absence of L-methionine.

[2] = system: homoserine transsuccinylase; experiment: Homoserine transsuccinylase activity test (Lee et al.), 5,5'-dithiobis(2-nitrobenzoic acid), absorption at 412 nm, with and without SAM; format: biochemical, E. coli; details: for Activity (%) in the presence of 1 mM SAM: activity in the absence of SAM corresponds to 100%; for Ki: SAM (Cl salt, Sigma) as inhibitor; for Activity (U/mg): cell extract, 3 mM homoserine, 0.3 mM succinyl-CoA, 50 mM potassium phosphate buffer pH 7.5
Description: In order to determine the sensitivity of the activity of the different homoserine transsuccinylases to SAM, it is possible, for example, to carry out an activity test as described in Lee L. W. et al., J. Biol. Chem. 241, 5479-5480 (1966). In this method, the enzyme extract is incubated with homoserine and succinyl-CoA. After various times, a part of the test assay sample is stopped by adding it to a mixture of ethanol, water, and 5,5′-dithiobis(2-nitrobenzoic acid). The absorption is determined photometrically at 412 nm. The described test is suitable, for example, for determining the sensitivity of the homoserine transsuccinylases to SAM.
The influence of SAM on the activities of the different homoserine transsuccinylases was determined by quantifying the activity in the presence of different concentrations of SAM (Cl salt, Sigma). The cell extracts were grown and prepared as described in Example 3. The activity test was carried out as described in Lee L. W. et al., J. Biol. Chem. 241, 5479-5480 (1966), with the enzyme extract being incubated with 50 mM potassium phosphate buffer, pH 7.5, 3 mM homoserine and 0.3 mM succinyl-CoA. After various times, 100 μl volumes of test mixture were stopped by adding them in each case to a mixture of 400 μl of ethanol, 400 μl of water and 100 μl of 10 mM 5,5′-dithiobis(2-nitrobenzoic acid). After the resulting mixture had been incubated at room temperature for 5 minutes, the absorption was determined photometrically at 412 nm. After the protein concentration had been determined, the enzyme activity was calculated using the extinction coefficient. The Ki was determined as a measure of the ability of SAM to inhibit the activity.

| Molecule | Activity (%) in the presence of 1 mM L-methionine [1] [%] | Activity (U/mg) [1] [U/mg] | Ki [1] [mM] | Activity (%) in the presence of 1 mM SAM [2] [%] | Ki [2] [mM] | Activity (U/mg) [2] [U/mg] |
| --- | --- | --- | --- | --- | --- | --- |
| pSLmetAH: MetA variant with His instead of Asp at position 101 (protein, UniProt P07623 2-309, looked up, variant D101H) Homoserine …: PIRVPDELPAVNFLREENVFVMTTSRASGQEIRPLKVLILNLMPKKIETENQFLRLLSNSPLQVDIQLLRIDSRESRNTPAEHLNNFYCNFEDIQDQNFHGLIVTGAPLGLVEFNDVAYWPQIKQVLEWSKDHVTSTLFVCWAVQAALNILYGIPKQTRTEKLSGVYEHHILHPHALLTRGFDDSFLAPHSRYADFPAALIRDYTDLEILAETEEGDAYLFASKDKRIAFVTGHPEYDAQTLAQEFFRDVEAGLDPDVPYNYFPHNDPQNTPRASWRSHGNLLFTNWLNYYVYQITPYDLRHMNPTLD | 90 | 0.045 | 12 | 93 | 16 | 0.27 |
| pSLmetAA: MetA variant with Ala instead of Asp at position 101 (protein, UniProt P07623 2-309, looked up, variant D101A) Homoserine …: PIRVPDELPAVNFLREENVFVMTTSRASGQEIRPLKVLILNLMPKKIETENQFLRLLSNSPLQVDIQLLRIDSRESRNTPAEHLNNFYCNFEDIQDQNFAGLIVTGAPLGLVEFNDVAYWPQIKQVLEWSKDHVTSTLFVCWAVQAALNILYGIPKQTRTEKLSGVYEHHILHPHALLTRGFDDSFLAPHSRYADFPAALIRDYTDLEILAETEEGDAYLFASKDKRIAFVTGHPEYDAQTLAQEFFRDVEAGLDPDVPYNYFPHNDPQNTPRASWRSHGNLLFTNWLNYYVYQITPYDLRHMNPTLD | 96 | 0.031 | 6 | 90 | 8 | 0.20 |
| pSLmetAY: MetA variant with Tyr instead of Asp at position 101 (protein, UniProt P07623 2-309, looked up, variant D101Y) Homoserine …: PIRVPDELPAVNFLREENVFVMTTSRASGQEIRPLKVLILNLMPKKIETENQFLRLLSNSPLQVDIQLLRIDSRESRNTPAEHLNNFYCNFEDIQDQNFYGLIVTGAPLGLVEFNDVAYWPQIKQVLEWSKDHVTSTLFVCWAVQAALNILYGIPKQTRTEKLSGVYEHHILHPHALLTRGFDDSFLAPHSRYADFPAALIRDYTDLEILAETEEGDAYLFASKDKRIAFVTGHPEYDAQTLAQEFFRDVEAGLDPDVPYNYFPHNDPQNTPRASWRSHGNLLFTNWLNYYVYQITPYDLRHMNPTLD | 93 | 0.094 | 10 | 95 | 14 | 0.61 |
| pSLmetAS: MetA variant with Ser instead of Asp at position 101 (protein, UniProt P07623 2-309, looked up, variant D101S) Homoserine …: PIRVPDELPAVNFLREENVFVMTTSRASGQEIRPLKVLILNLMPKKIETENQFLRLLSNSPLQVDIQLLRIDSRESRNTPAEHLNNFYCNFEDIQDQNFSGLIVTGAPLGLVEFNDVAYWPQIKQVLEWSKDHVTSTLFVCWAVQAALNILYGIPKQTRTEKLSGVYEHHILHPHALLTRGFDDSFLAPHSRYADFPAALIRDYTDLEILAETEEGDAYLFASKDKRIAFVTGHPEYDAQTLAQEFFRDVEAGLDPDVPYNYFPHNDPQNTPRASWRSHGNLLFTNWLNYYVYQITPYDLRHMNPTLD | 89 | 0.027 | 7.5 |  | 10 | 0.15 |
| pSLmetAC: MetA variant with Cys instead of Asp at position 101 (protein, UniProt P07623 2-309, looked up, variant D101C) Homoserine …: PIRVPDELPAVNFLREENVFVMTTSRASGQEIRPLKVLILNLMPKKIETENQFLRLLSNSPLQVDIQLLRIDSRESRNTPAEHLNNFYCNFEDIQDQNFCGLIVTGAPLGLVEFNDVAYWPQIKQVLEWSKDHVTSTLFVCWAVQAALNILYGIPKQTRTEKLSGVYEHHILHPHALLTRGFDDSFLAPHSRYADFPAALIRDYTDLEILAETEEGDAYLFASKDKRIAFVTGHPEYDAQTLAQEFFRDVEAGLDPDVPYNYFPHNDPQNTPRASWRSHGNLLFTNWLNYYVYQITPYDLRHMNPTLD | 92 | 0.084 | 5 | 91 | 7 | 0.51 |
| pSLmetAI: MetA variant with Ile instead of Asp at position 101 (protein, UniProt P07623 2-309, looked up, variant D101I) Homoserine …: PIRVPDELPAVNFLREENVFVMTTSRASGQEIRPLKVLILNLMPKKIETENQFLRLLSNSPLQVDIQLLRIDSRESRNTPAEHLNNFYCNFEDIQDQNFIGLIVTGAPLGLVEFNDVAYWPQIKQVLEWSKDHVTSTLFVCWAVQAALNILYGIPKQTRTEKLSGVYEHHILHPHALLTRGFDDSFLAPHSRYADFPAALIRDYTDLEILAETEEGDAYLFASKDKRIAFVTGHPEYDAQTLAQEFFRDVEAGLDPDVPYNYFPHNDPQNTPRASWRSHGNLLFTNWLNYYVYQITPYDLRHMNPTLD | 95 | 0.107 | 9.5 | 93 | 12 | 0.68 |
